According to the supplement of paper PMC5998384:

Key:
HeLa Kyoto [1] = experiment: solubility in G1/S (NP-40 vs SDS abundance) (log2 ratio); higher = more soluble; conditions: cell cycle stage: G1/S
HeLa Kyoto [2] = experiment: melting temperature (median over replicates), in situ; higher = more thermally stable
HeLa Kyoto [3] = experiment: solubility change mitosis vs G1/S (difference of NP-40 vs SDS log2 ratios) (log2 ratio difference); higher = more soluble in mitosis
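For melting temperature (median over replicates), in situ in this document: HeLa Kyoto cells synchronized by double thymidine or nocodazole block, proteins quantified by TMT10plex mass spectrometry, three independent biological replicates.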
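For solubility change mitosis vs G1/S (difference of NP-40 vs SDS log2 ratios) in this document: synchronized HeLa Kyoto cells (double thymidine block for G1/S, nocodazole release for mitosis), protein amounts in NP-40 versus SDS lysates quantified by mass spectrometry, three biological replicates.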
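For solubility in G1/S (NP-40 vs SDS abundance) in this document: HeLa Kyoto cells arrested at G1/S by double thymidine block, proteins quantified by TMT10plex mass spectrometry in mild NP-40 versus SDS extracts, three biological replicates.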

Sequence | solubility in G1/S (log2) (HeLa Kyoto [1]) | melting temperature (HeLa Kyoto [2]; cell cycle stage: mitosis) | solubility change mitosis (log2) (HeLa Kyoto [3]) | melting temperature (HeLa Kyoto [2]; cell cycle stage: G1/S)
MSATSVDTQRTKGQDNKVQNGSLHQKDTVHDNDFEPYLTGQSNQSNSYPSMSDPYLSSYYPPSIGFPYSLNEAPWSTAGDPPIPYLTTYGQLSNGDHHFMHDAVFGQPGGLGNNIYQHRFNFFPENPAFSAWGTSGSQGQQTQSSAYGSSYTYPPSSLGGTVVDGQPGFHSDTLSKAPGMNSLEQGMVGLKIGDVSSSAVKTVGSVVSSVALTGVLSGNGGTNVNMPVSKPTSWAAIASKPAKPQPKMKTKSGPVMGGGLPPPPIKHNMDIGTWDNKGPVPKAPVPQQAPSPQAAPQPQQVAQPLPAQPPALAQPQYQSPQQPPQTRWVAPRNRNAAFGQSGGAGSDSNSPGNVQPNSAPSVESHPVLEKLKAAHSYNPKEFEWNLKSGRVFIIKSYSEDDIHRSIKYSIWCSTEHGNKRLDSAFRCMSSKGPVYLLFSVNGSGHFCGVAEMKSPVDYGTSAGVWSQDKWKGKFDVQWIFVKDVPNNQLRHIRLENNDNKPVTNSRDTQEVPLEKAKQVLKIISSYKHTTSIFDDFAHYEKRQEEEEVVRKERQSRNKQ [YTHDF1] | 0.14 | 47.8 °C | -0.0272 | 
MSEAYFRVESGALGPEENFLSLDDILMSHEKLPVRTETAMPRLGAFFLERSAGAETDNAVPQGSKLELPLWLAKGLFDNKRRILSVELPKIYQEGWRTVFSADPNVVDLHKMGPHFYGFGSQLLHFDSPENADISQSLLQTFIGRFRRIMDSSQNAYNEDTSALVARLDEMERGLFQTGQKGLNDFQCWEKGQASQITASNLVQNYKKRKFTDMED [GINS3] | 0.471 | 51.7 °C | 0.225 | 51.7 °C
MSEEEQGSGTTTGCGLPSIEQMLAANPGKTPISLLQEYGTRIGKTPVYDLLKAEGQAHQPNFTFRVTVGDTSCTGQGPSKKAAKHKAAEVALKHLKGGSMLEPALEDSSSFSPLDSSLPEDIPVFTAAAAATPVPSVVLTRSPPMELQPPVSPQQSECNPVGALQELVVQKGWRLPEYTVTQESGPAHRKEFTMTCRVERFIEIGSGTSKKLAKRNAAAKMLLRVHTVPLDARDGNEVEPDDDHFSIGVGSRLDGLRNRGPGCTWDSLRNSVGEKILSLRSCSLGSLGALGPACCRVLSELSEEQAFHVSYLDIEELSLSGLCQCLVELSTQPATVCHGSATTREAARGEAARRALQYLKIMAGSK [TARBP2] | 0.152 | 51.7 °C | 0.129 | 
MSGFNFGGTGAPTGGFTFGTAKTATTTPATGFSFSTSGTGGFNFGAPFQPATSTPSTGLFSLATQTPATQTTGFTFGTATLASGGTGFSLGIGASKLNLSNTAATPAMANPSGFGLGSSNLTNAISSTVTSSQGTAPTGFVFGPSTTSVAPATTSGGFSFTGGSTAQPSGFNIGSAGNSAQPTAPATLPFTPATPAATTAGATQPAAPTPTATITSTGPSLFASIATAPTSSATTGLSLCTPVTTAGAPTAGTQGFSLKAPGAASGTSTTTSTAATATATTTSSSSTTGFALNLKPLAPAGIPSNTAAAVTAPPGPGAAAGAAASSAMTYAQLESLINKWSLELEDQERHFLQQATQVNAWDRTLIENGEKITSLHREVEKVKLDQKRLDQELDFILSQQKELEDLLSPLEELVKEQSGTIYLQHADEEREKTYKLAENIDAQLKRMAQDLKDIIEHLNTSGAPADTSDPLQQICKILNAHMDSLQWIDQNSALLQRKVEEVTKVCEGRRKEQERSFRITFD [NUP62] | 0.32 | 51.7 °C | 0.107 | 51.8 °C
MSQATKRKHVVKEVLGEHIVPSDQQQIVRVLRTPGNNLHEVETAQGQRFLVSMPSKYRKNIWIKRGDFLIVDPIEEGEKVKAEISFVLCKDHVRSLQKEGFWPEAFSEVAEKHNNRNRQTQPELPAEPQLSGEESSSEDDSDLFVNTNRRQYHESEEESEEEEAA [EIF1AD] | 0.37 | 53.3 °C | -0.0155 | 53.5 °C
MSSRSTKDLIKSKWGSKPSNSKSETTLEKLKGEIAHLKTSVDEITSGKGKLTDKERHRLLEKIRVLEAEKEKNAYQLTEKDKEIQRLRDQLKARYSTTTLLEQLEETTREGERREQVLKALSEEKDVLKQQLSAATSRIAELESKTNTLRLSQTVAPNCFNSSINNIHEMEIQLKDALEKNQQWLVYDQQREVYVKGLLAKIFELEKKTETAAHSLPQQTKKPESEGYLQEEKQKCYNDLLASAKKDLEVERQTITQLSFELSEFRRKYEETQKEVHNLNQLLYSQRRADVQHLEDDRHKTEKIQKLREENDIARGKLEEEKKRSEELLSQVQFLYTSLLKQQEEQTRVALLEQQMQACTLDFENEKLDRQHVQHQLHVILKELRKARNQITQLESLKQLHEFAITEPLVTFQGETENREKVAASPKSPTAALNESLVECPKCNIQYPATEHRDLLVHVEYCSK [CEP55] | 0.417 | 48.9 °C | 0.238 | 48.1 °C
